Measurements as given in the emibetuzumab library of Makowski et al. (2022).

B1: VH:VL chains; a variant is named by its letters at X, in order (parent)
chain 1: QVQLVQSGAEVKKPGASVKVSCKASGYTFTDYXMHWVRQAPGQGLEWMGXVNPNXXXTTYNQKFEGRVTMTTDTSTSTAYMELRSLRSDDTAVYYCARXNXLDXWGQGTTVTVSS
chain 2: DIQMTQSPSSLSASVGDRVTITCSVSSSVSSIYLHWYQQKPGKAPKLLIYSTSNLASGVPSRFSGSGSGTDFTLTISSLQPEDFATYYCQVYSGYPLTFGGGTKVEIK

Variants of: B1
Test: yeast display scFab, FACS + sequencing
Procedure, shortened: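 Non-specific binding was called from deep sequencing of sorted yeast cells displaying a heavy-chain CDR mutant scFab library. Cells labelled with anti-Myc and biotinylated ovalbumin (260 μg/mL in PBSB, 3 h, room temperature) or soluble membrane proteins (130 μg/mL, 20 min on ice) were FACS-sorted, collecting the top 25% and bottom 10% of binders from two replicates. A sequence was positive when present in ≥3 of 4 pooled positive samples and absent from all negatives, and negative under the converse rule.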

Row | Variant | non-specific binding call
1 | SRGRGAWA | binds
2 | SRGRGAWS | binds
3 | SRGRGAWF | binds
4 | SRGRGAWD | binds
5 | SRGRGAWY | binds
6 | YRGRGSVY | binds
7 | FRGRDVAV | binds
8 | FRGRGSSA | binds
9 | FRGRGSSY | binds
10 | FRGRGSSD | binds
11 | VRGRDYGD | binds
12 | YRGRDSVS | binds
13 | YRGRGAVF | binds
14 | ARGRGAWV | binds
15 | FRGRDVVV | binds
16 | FRGRGDGD | binds
17 | FRGRGDGY | binds
18 | FRGRDSVA | binds
19 | SRGRGSSS | binds
20 | YRGRGFGS | binds
21 | YRGRGFGF | binds
22 | YRGRGFGV | binds
23 | YRGRGFGY | binds
24 | YRGRGFLV | binds
25 | SRGRGAVS | binds
26 | SRGRGAVD | binds

Row | Variant | non-specific binding call
27 | DRGRDFGV | no binding
28 | VRGRGFVV | binds
29 | ARGRGAAD | binds
30 | ARGRGAAS | binds
31 | FRGRDSGY | binds
32 | VRGRGFLD | binds
33 | YRGRGDSV | no binding
34 | DRGRDSSA | no binding
35 | VRGRGALS | binds
36 | VRGRGALF | binds
37 | FRGRGAVY | binds
38 | FRGRDYGF | binds
39 | FRGRDYGS | binds
40 | FRGRDYGY | binds
41 | FRGRDYGA | binds
42 | FRGRDYGD | binds
43 | FRGRDSSF | binds
44 | FRGRGSLF | binds
45 | FRGRGSLS | binds
46 | FRGRGSLV | binds
47 | FRGRGFLS | binds
48 | YRGRGFSA | binds
49 | YRGRGFSD | binds
50 | SRGRGFAA | binds
51 | FRGRGAAS | binds
52 | FRGRGAAY | binds

Row | Variant | non-specific binding call
53 | DRGRGDVV | no binding
54 | FRGRGFVA | binds
55 | YRGRDYGV | binds
56 | ARGRGSSS | binds
57 | YRGRGASF | binds
58 | YRGRGAWF | binds
59 | VRGRGDLA | no binding
60 | FRGRDFLD | binds
61 | FRGRDFLF | binds
62 | SRGRGSVD | binds
63 | YRGRGALS | binds
64 | YRGRGALF | binds
65 | YRGRDVGY | binds
66 | FRGRGAWV | binds
67 | FRGRGAWD | binds
68 | FRGRGAWS | binds
69 | FRGRGAWF | binds
70 | DRGRGDWV | no binding
71 | FRGRGFGV | binds
72 | YRGRDSSS | binds
73 | FRGRGFSV | binds
74 | FRGRGFSA | binds
75 | FRGRGSWS | binds
76 | FRGRGSWV | binds
77 | SRGRGSWD | binds
78 | FRGRGSAF | binds

Row | Variant | non-specific binding call
79 | FRGRGSAD | binds
80 | FRGRGSAV | binds
81 | FRGRGSAA | binds
82 | FRGRGSAY | binds
83 | FRGRDSWS | binds
84 | FRGRGASV | binds
85 | FRGRGASD | binds
86 | DRGRGSAD | binds
87 | SRGRGSGA | binds
88 | YRGRDSAS | no binding
89 | SRGRGSLS | binds
90 | SRGRGFVA | binds
91 | FRGRDYAA | binds
92 | FRGRGSVV | binds
93 | FRGRGSVY | binds
94 | FRGRGSVF | binds
95 | FRGRGSVS | binds
96 | FRGRGSVD | binds
97 | FRGRDFSA | binds
98 | FRGRGDLS | binds
99 | SRGRGAGF | binds
100 | FRGRGALS | binds
101 | FRGRGALF | binds
102 | FRGRGALA | binds
103 | FRGRGALY | binds
104 | YRGRDSWD | binds

Row | Variant | non-specific binding call
105 | ARGRGSAA | binds
106 | FRGRGAGA | binds
107 | FRGRGAGS | binds
108 | FRGRGDWV | no binding
109 | FRGRGSGF | binds
110 | FRGRGSGV | binds
111 | YRGRGFVD | binds
112 | YRGRGFVA | binds
113 | YRGRGFVY | binds
114 | YRGRGFVV | binds
115 | ARGRGSVA | binds
116 | YRGRGSSF | binds
117 | VRGRGFAA | binds
118 | YRGRGSAF | binds
119 | YRGRGSAY | binds
120 | YRGRGSWY | binds
121 | YRGRGFAD | binds
122 | YRGRGFAS | binds
123 | YRGRGFAY | binds
124 | YRGRGFWF | binds
125 | YRGRDFVD | binds
126 | FRGRGDVD | binds
127 | FRGRGDVV | binds
128 | FRGRDFVA | binds
129 | FRGRDFVS | binds
